Consider 1 molecule from article PMC11988119.

The target in the assay is GnRH-AIF chimeric protein. Put plainly: co-IP; anti-AIF antibody (ab32516) on Protein A/G beads; nuclear fractions of Colo205 cells treated with GnRH-AIF (1 µM) or PBS for 24 h; overnight at 4 °C, washed with PBS; blots with anti-ENDOG and anti-AIFM1.

B1: endonuclease G (enzyme)
chain: AELPPVPGGPRGPGELAKYGLPGLAQLKSRESYVLCYDPRTRGALWVVEQLRPERLRGDGDRRECDFREDDSVHAYHRATNADYRGSGFDRGHLAAAANHRWSQKAMDDTFYLSNVAPQVPHLNQNAWNNLEKYSRSLTRSYQNVYVCTGPLFLPRTEADGKSYVKYQVIGKNHVAVPTHFFKVLILEAAGGQIELRTYVMPNAPVDEAIPLERFLVPIESIERASGLLFVPNILARAGSLKAITAGSK
The molecule B1 showed a fold increase of co-precipitated ENDOG, cells treated with GnRH-AIF against PBS control of 1.6 fold.
